B1: His-MinD (B. subtilis MinD, N-terminally His-tagged) [B. subtilis] / itself (parent)
chain: MGEAIVITSGKGGVGKTTTSANLGTALAILGKRVCLVDTDIGLRNLDVVMGLENRIIYDLVDVVEGRCKMHQALVKDKRFDDLLYLMPAAQTSDKTAVAPEQIKNMVQELKQEFDYVIIDCPAGIEQGYKNAVSGADKAIVVTTPEISAVRDADRIIGLLEQEENIEPPRLVVNRIRNHLMKNGDTMDIDEIVQHLSIDLLGIVADDDEVIKASNHGEPIAMDPKNRASIAYRNIARRILGESVPLQVLEEQNKGMMAKIKSFFGVRS

Variants of B1 are the subject of the assay. Nature of the assay: gel filtration (size-exclusion chromatography), self-association. As to conditions: with itself; purification buffers supplied with excess Mg2+-ADP; read off a plot.
Take MGEAIVITSGKGGVGKTTTSANLGTALAILGKRVCLVDTAIGLRNLDVVMGLENRIIYDLVDVVEGRCKMHQALVKDKRFDDLLYLMPAAQTSDKTAVAPEQIKNMVQELKQEFDYVIIDCPAGIEQGYKNAVSGADKAIVVTTPEISAVRDADRIIGLLEQEENIEPPRLVVNRIRNHLMKNGDTMDIDEIVQHLSIDLLGIVADDDEVIKASNHGEPIAMDPKNRASIAYRNIARRILGESVPLQVLEEQNKGMMAKIKSFFGVRS [chain 1 D40A]: the elution volume was found to be 15.8 mL.
With MGEAIVITSGKGGVGATTTSANLGTALAILGKRVCLVDTDIGLRNLDVVMGLENRIIYDLVDVVEGRCKMHQALVKDKRFDDLLYLMPAAQTSDKTAVAPEQIKNMVQELKQEFDYVIIDCPAGIEQGYKNAVSGADKAIVVTTPEISAVRDADRIIGLLEQEENIEPPRLVVNRIRNHLMKNGDTMDIDEIVQHLSIDLLGIVADDDEVIKASNHGEPIAMDPKNRASIAYRNIARRILGESVPLQVLEEQNKGMMAKIKSFFGVRS [chain 1 K16A] the figure was 15.7 mL; with MGEAIVITSGKVGVGKTTTSANLGTALAILGKRVCLVDTDIGLRNLDVVMGLENRIIYDLVDVVEGRCKMHQALVKDKRFDDLLYLMPAAQTSDKTAVAPEQIKNMVQELKQEFDYVIIDCPAGIEQGYKNAVSGADKAIVVTTPEISAVRDADRIIGLLEQEENIEPPRLVVNRIRNHLMKNGDTMDIDEIVQHLSIDLLGIVADDDEVIKASNHGEPIAMDPKNRASIAYRNIARRILGESVPLQVLEEQNKGMMAKIKSFFGVRS [chain 1 G12V], 16.1 mL.

(Values after article PMC13246001, “Membrane binding controls the ATPase cycle and localization of MinD in Bacillus subtilis” (eLife, 2026).)
